Measured values as given in the nanobody polyreactivity screen of Harvey et al. (2022).

Test: yeast display, Sf9 membrane polyspecificity reagent, FACS + sequencing; frameworks hold sequencing errors
Summary of the method: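 Galactose induction of a Saccharomyces cerevisiae BJ5465 synthetic nanobody display library ran 36–48 hours. The cells were then stained for 1 hour at 4 °C with 10% biotinylated, detergent-solubilized Sf9 membrane reagent, pulled down on streptavidin microbeads and FACS-sorted into low and high (top ~1%) gates on expression and reagent-binding fluorescence. Labels for polyreactivity follow the gate of origin.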

| Sequence | polyreactivity (PSR sort gate) |
| --- | --- |
| QVQLVESGGGLVQAGGSLRLSCAASGRIFTYNAMGWYRQAPGKERELVASINLDGDSTYYADSVKGRFTISRDNAKKTVYLQMNSLKTEETAVYYCAVPGATSYFAYDSWGQGTQVTVSS | low polyreactivity |
| QVQLVESGGGLVQAGGSLRLSCAASGSIFVTYAMGWYRQAPGKERELVASISWRGVSTRYADSVKGRFTISRDNAKNTVYLQMNSLKPEDTAVYYCAARVTSHMYYWGQGTQVTVSS | high polyreactivity |
| QVQLVESGGGLVQAGGSLRLSCDASGSIFPHNAMGWYRQAPGKERELVAAISVSGGSKYYADSVKGRFTISRDNAKNTVYLQMNSLKPEDTAVYYCAAYAYGGRINGYRTYRYNYWGQGTQVTVSS | high polyreactivity |
| QDQLVESGGGLVQAGRSLRLSCAASGSIFTVYAMGWYRQAPGKEWELVASISTGGSTNYADSVKGRFTISRDNAKNTVYLPMISLKPEDTAVYYCAATGWAYGYGYGYWGQGTQVTVSS | low polyreactivity |
| QVQLEESRGGLVQAGGSHRLSCAAYGSIFRSYAMGWYRQAPGKERDLVAAISSRSGSTYYADSVKGRFTISRDNAKNTVYLQMNSLKPEDTAVYYCAAQHRHSFGYWGQGTQVTVSS | high polyreactivity |
| QVQLVESWGGLVQAGGSLRLSCAASGITFFFYAMGLYRLAPGKERELVASITWEDGSTYYADSVKGRFTISRDNANNTVYLQKNSLKPEDTAVYYCAADFEAGGYSLDYWGQGTQVTVSS | low polyreactivity |
| QDQLVESGGGLVQAGGSLRLSCAASGRIFGWYAMGWYRQAPGKEREFVAAISRGGSTNYADSVKGRFTISRDNAKNTVYLQMNSLKAEDTAVYYCNARKRGSRLRREFDYWGQGTQVTVST | high polyreactivity |
| QVQLVESGGGIVQAGGSLRLSCAASGIIIDGNAMGWYRQAPGKERELVAAISSRGGSTYYADSVKGRFTISRDYAKNTVYLQMNSLKPEDTAVYYCAAKVRHYYSASNYYYWGQGTQVTVSS | high polyreactivity |
| QVQLVESGGGLVQAGGSLRLSCAASRYIFSRNAMGWYRQAPGKERELVAAISLRGGSTYFADSVKGRFTISRDNAKNTVYLQMNSLKPEDTAVYYCAAPLFSGYDYWGQGTQVTVSS | low polyreactivity |
| QVQLVESGGGLVQAGASLRLSCAASGRIFVVNAMGWYRQAPGKERELVATITRSGGITYYADSVKGRFTISRDNAKNTVYLQMNSLKPEDTAVYYCNADVLFYTYYTRGRFDFDYWGQGSQVTVSS | low polyreactivity |
| QVQLVESGGGLVQAGGSLRLSCAASGRIFSFYAMGWYRQAPGKERELVATISDGGATTYYADSVKGRFTISRDNAKNTVYLQMNSLKPEDTAVYYCAADKRGRPGLPDYDSWGQGTQVTVSS | low polyreactivity |
| QVQLVESGGGLVQAGGSLRLSCAASGINFIYNAMGWYRQAPGKERELVATISRRGGSTYYADSVKGRFTISRDNAKNTVYLQMNSLKPEVTAVYYSARDVGAGSKISRLSSYNYWGQGTQVTVSS | low polyreactivity |
| QVQLVESGGGLVQAGGSLRLSCAASGSTFRYYGMGWYRQAPGKERELVATINRGGRTYYADSVKGRFTISRDNAKNTVYLQMNSLKPEDTAVYYCAADYYYYVACVHDDYWGQGTQVTGSS | low polyreactivity |
| QVQLVESGGGLVQAGGSLRLTCAASGSIFYPYAMGWYRQAPGKERELVAAISWSGGSTYYADSVKGRFTISRDNAKNTVYLQMKSLKPEDTAVYYCNAVGHWFYSSGRYYGDDYWGQGTQVTVSS | high polyreactivity |
| QVQLVESGGRLLQAGGSLRLSCAASGRIIGLYAMGWYRPAPGKEWEFVAAINWDGGSTFYADSVKGRFTISRDNAKNSVYLQMNSLQPEDTAVYYCAADVYSYVSNCTYVSVFTYDYWGHGTQVTVSS | low polyreactivity |
| QVQLVESGGGLVQAGGSLRLSCAASGRTFGKYAMGWYRQAPGKERELVAGISSRGGSTYYADSVKGRFTISRDNAKNTVYLQMNSLKPEDTAVYYCAKRPLTSNASQGDYWGQGTQVTVSS | high polyreactivity |
| QVQLVESGGGLVQAGGSLRLSCAASGLTFYYYAMGWYRQAPGKERELVAAISATGGRTYYADSVKGRFTISRDNAKNTVYLQMNSLKPEDTAVYYCAADTPYLRRRLGMDYWGQGTQVTVSS | high polyreactivity |
| QDQLVESGGGLVQAGGSLRLSCAASGIIFRNYAMGWYRQAPGKERELVATIRYRGGRTYADSVKGRFTISRDNAKNTVYLQMNSLKPEDTAVYYCNARRLSDYGDYDYWGQGTQVTVSS | high polyreactivity |
| QVQLVESGGGLVQAGGSLRLSCAPSGRTFYINAMGWYRQAPGKEREFVAAITTSGGGTYYADSVKGRFTISRDNAKNTVYLQMNSLKPEDTAVYYCNTRSRRGKDGRYDYWGQGTQVTVSS | high polyreactivity |
| QVQLVESGGGLVQAGGSLRLSCASSGTFFGYAMGWYRQAPGKERELVAAITSGGSTYYADSVKGRFTISRDNAKNTVYLQMNSLKPEDTAGYYCARVYSRWSYRYDYWGQGTQVTVST | low polyreactivity |
| QVQLVESGGGLVQAGDSLRLSCAASGIILLSYAMGWYRQAPGKERELVAAITSGGGTNYADSVKGRFTISRDNAKNTVYLQMNSLKPEDTAVYYCAVGAYAGLYYYWGQGTQVTVSS | low polyreactivity |
| QVQLVESGGGLVQAGGSHRLSCAASGNTFYDYAMGWYRQAPGKERELVAAISSDGNTYYADSVKGRFTFSRDNAKKTVYLQMNSLKPVDTAVYYCAADAWRYYYLSWFGSIGFDYWGQGTQVTVSS | high polyreactivity |

| Sequence | polyreactivity (PSR sort gate) |
| --- | --- |
| QVQLVESGGGLVQAGGSLRLSCAASGLTFISYDMGWYRQAPGKERELVAAISSGGVLPNYADSVKGRFTISRDNAKNTVYLQMNSLKPEDTAVYYCNADTPTWPLDYWGQGTQVTVSS | low polyreactivity |
| QVQLVESGGGLVQAGGSLRLSCAASGRTFYTNAMGWYRQAPGKERELVAVISRGGTTYYADSVKGRFTISRDNAKYTVYFQMNSLKPEDTAVYYCAKQRPSGDSSSQLGSWGQGTQVTVSS | low polyreactivity |
| QVQLVESGGGLVQAGGSLRLSCAASGFIFSTYAMGWYRQAPGKERELVAAITNSGGSTYYADSVKGRFTISRDNAKNTVYLQMNSLKPEDTAVYYCARRRSYRDNYWGQGTQVTVSS | high polyreactivity |
| QVQLVESGGGLVQAGGSLRLSCAASGSIFEVNAMGWYRQAPGKERELVAAISFSGDSTYYADSVKGRFTISRDNAKNTVYLQMNSLKPEDTAVYYCAAEQYVAWIDYLYDYWGQGTQVTVSS | high polyreactivity |
| QVQLVESGGGLVQAGGSHRLSCAASGSTFKNYPMGGYRQAPGQEREFVAAINVSGARTYYADSVKGRFTISRDNAKNTVYLQMNSLKPEDTAVYYCAAYYSGVGYDYWGQGTQVTVSS | high polyreactivity |
| QVQLVESGGGLVQAGGSLRLSCAASGRTFGYNAMGWYRQAPGKERELVAAINDGGSTNYADSVKGRFTISRDNAKNTVYLQMNSLKPEDTAVYYCATDFSNGRQSTFPYEYYYWGQGTQVTVSS | high polyreactivity |
| QVQLVESGGGLVQAGGSLRLTCAASGGTISVYDMGWYRQAHGNERELVAAIRDRGVSTYYADSVKGRFTISRDTAKNTVYLQMNSLKPEDTAVYYCAAEYFDGSTYSYYYWGQGTQVTVSS | high polyreactivity |
| QVQLVESGGGLVQAGGSLRLSCAASGRIFVKNAMGWYRQAPGKERELVAAISSSSGSTYYADSVKGRFTISRDNAKNTVYLQMNSLKPEDTAVYYCATVRWYYSRPRPTTAYGYWGQGTQVNVSS | high polyreactivity |
| QVQLVESGGGLVQAGGSLRLSCAASGRTFAWYTMGWYRQAPGKERELVASITKRGGRTYYADSVKGRFTISRDNAKNTVYLQMNSLKPEDTAVYYCAAGASQGRGTVTFDYWGQGTQVTVSS | high polyreactivity |
| QVQLVDSGGGLVQAGGSLRLSCAASGSTFTSYAMGWYRQAPGKERELVAAITGSGGRTYYADSVKGRFTISRDNAKNTVYLQMNSLKPEDTAVYYCAARKVRTVYQSRGNYWGQGTLVTVSS | high polyreactivity |
| QVQLVESAGGLVQAGGILRLSCAASGITIYRYAMGWYRQAPGKERELVADISSGGGTTYYADSVKGRFTISRYNAKNTVYLQMNSQKPEDTAVYYCAADYGFRYPLYDYWGQGTQVTVSS | low polyreactivity |
| QVLLVESGGGLVQAGGSLRLSCAASGGTFLFYGMGWYRQAPGKERELVAVITWSGGSTYYADSVKGRFTISRDNAKNTVNLQMNSLKPEDTAVYYCNAANTGSPDYQSIGYNFNYWGQGTQVTVSS | low polyreactivity |
| QVQHVESGGGLVQAGGSLRLSCAASGLTFPYYVMGWYRQAPGKERELVAAIDDGGGSTYYADSVKGRFTISRDNAKNTVYLQMNSLKPVDTAVYYCAAQVDYLAHYGYWGQGTQVTVSS | low polyreactivity |
| QVQLVESGGGLVQAGGSLRLSCAASGRIFSRYAMGLYRQAPGKERELVAAITWRGGSTYYADSVKGRFTISRDNAKNTVYLEMNSLKPEDSAVYYCAKYGSGGRQLRSDSWVQGTQVTVSS | high polyreactivity |
| QVQLVESGGGLVQAGGSLRLSCAASGSIFWGYAMGWYRQAPGKERELVATISWTGGSTYYADSVKGRFTISRDNAKNTVYLQMNSLKPEDTAVYYGAKVIIHYYYVVNLVDVDYWGQGTQVTVSS | low polyreactivity |
| QVQLVESGGGLVQAGGSLRLSCAASGRIFRYYAMGWYRQAPGKEREFVAGISWRGSSTYYADSVKGRFTISRDNAKNTVYLQMNSLKPEDTAVYYCNRDQSNIPVTGGRFYYWGQGTQVTVSS | high polyreactivity |
| QVQLVESGGGLVQAGGSLRLSCAASGSTFRRYTMGWYRQAPGKERELLAAISSGGSTYYADSVKGRFTISRDNAKNTVYLQMNSLNPEDTAVYYCAAKNYPLTRYWRYDYSEYYYWGQATQVTVSS | high polyreactivity |
| QVQLVESGGGLVQAGGSLRLSCAASGFTFYGNAMGWYRQAPGKERELVAAISLSDGYADSVKGRFTISRDNAKNTVYLLMNSLKPEDTAVYYCAKDRTDSKRREHDYWGQGTQVTVSS | low polyreactivity |
| QVQLVESGGGLVQAGGSLRLSCAASGSTFRFYAMGWYRQAPGKEREFVAAISTSGGSTYYADSVKGRFTISRDNAKNTVYLQMISLKPEETAVYYCATRRRIRSSFYYDNDYWGLGTQVTVSS | high polyreactivity |
| QVHLVESGGGLVQAGGSLRLSCAASGRIIGKYAMGWYRQPPGKERELVAAITWSGGNTYYADSVKGRFTISRDNAKNTVYLQMNSLKPEDTAVYYCAASVPGKSHKDGYWGQGSQVTVSS | high polyreactivity |
| QVQLVESGGGLVQAGGSLRLSCAASGSIFTGYAMGWYRQAPGKERELVAAISWSGGSTSYADSVKGRFTISLDKAKNDVYLQMNSLKPEDTAVYYCAAERKARTYGYWGQGTEVTVSS | high polyreactivity |
